Assay results: patent US20200199241A1 (Chugai, published 2020)

B1: IgG1-F521 (antibody)
heavy: QVQLQESGPGLVKPSETLSLTCAVSGHSISHDHAWSWVRQPPGEGLEWIGFISYSGITNYNPSLQGRVTISRDNSKNTLYLQMNSLRAEDTAVYYCARSLARTTAMDYWGEGTLVTVSSASTKGPSVFPLAPSSKSTSGGTAALGCLVKDYFPEPVTVSWNSGALTSGVHTFPAVLQSSGLYSLSSVVTVPSSSLGTQTYICNVNHKPSNTKVDKKVEPKSCDKTHTCPPCPAPELLGGPSVFLFPPKPKDTLMISRTVEVTCVVVDVSHEDPEVKFNWYVDGVEVHEAKTKPREEQYNSTYRVVSVLQVLHQDWLNGKEYKCKVSNKALPAPIEKTISKAKGQPREPQVYTLPPSRDELTKNQVSLTCLVKGFYPSDIAVEWESNGQPENNYKTTPPVLDSDGSFFLYSKLTVDKSRWQQGNVFSCSVYHEALHYHYTQKSLSLSP
light: not shown
notes: EU numbering; copies: 2 + 2
B2: IgG1-F538 (antibody)
heavy: QVQLQESGPGLVKPSETLSLTCAVSGHSISHDHAWSWVRQPPGEGLEWIGFISYSGITNYNPSLQGRVTISRDNSKNTLYLQMNSLRAEDTAVYYCARSLARTTAMDYWGEGTLVTVSSASTKGPSVFPLAPSSKSTSGGTAALGCLVKDYFPEPVTVSWNSGALTSGVHTFPAVLQSSGLYSLSSVVTVPSSSLGTQTYICNVNHKPSNTKVDKKVEPKSCDKTHTCPPCPAPELLGGPSVFLFPPKPKDFLMISRTVEVTCVVVDVSHEDPEVKFNWYVDGVEVHNAKTKPREEQYNSTYRVVSVLQVLHQDWLNGKEYKCKVSNKALPAPIEKTISKAKGQPREPQVYTLPPSRDELTKNQVSLTCLVKGFYPSDIAVEWESNGQPENNYKTTPPVLDSDGSFFLYSKLTVDKSRWQQGNVFSCSVLHEALHYHYTQKSLSLSP
light: not shown
notes: EU numbering; copies: 2 + 2
B3: IgG1-F533 (antibody)
heavy: QVQLQESGPGLVKPSETLSLTCAVSGHSISHDHAWSWVRQPPGEGLEWIGFISYSGITNYNPSLQGRVTISRDNSKNTLYLQMNSLRAEDTAVYYCARSLARTTAMDYWGEGTLVTVSSASTKGPSVFPLAPSSKSTSGGTAALGCLVKDYFPEPVTVSWNSGALTSGVHTFPAVLQSSGLYSLSSVVTVPSSSLGTQTYICNVNHKPSNTKVDKKVEPKSCDKTHTCPPCPAPELLGGPSVFLFPPKPKDTLMISRTAEVTCVVVDVSHEDPEVKFNWYVDGVEVHEAKTKPREEQYNSTYRVVSVLQVLHQDWLNGKEYKCKVSNKALPAPIEKTISKAKGQPREPQVYTLPPSRDELTKNQVSLTCLVKGFYPSDIAVEWESNGQPENNYKTTPPVLDSDGSFFLYSKLTVDKSRWQQGNVFSCSVFHEALHYHYTQKSLSLSP
light: not shown
notes: EU numbering; copies: 2 + 2
B4: IgG1-F544 (antibody)
heavy: QVQLQESGPGLVKPSETLSLTCAVSGHSISHDHAWSWVRQPPGEGLEWIGFISYSGITNYNPSLQGRVTISRDNSKNTLYLQMNSLRAEDTAVYYCARSLARTTAMDYWGEGTLVTVSSASTKGPSVFPLAPSSKSTSGGTAALGCLVKDYFPEPVTVSWNSGALTSGVHTFPAVLQSSGLYSLSSVVTVPSSSLGTQTYICNVNHKPSNTKVDKKVEPKSCDKTHTCPPCPAPELLGGPSVFLFPPKPKDMLMISRTVEVTCVVVDVSHEDPEVKFNWYVDGVEVHNAKTKPREEQYNSTYRVVSVLQVLHQDWLNGKEYKCKVSNKALPAPIEKTISKAKGQPREPQVYTLPPSRDELTKNQVSLTCLVKGFYPSDIAVEWESNGQPENNYKTTPPVLDSDGSFFLYSKLTVDKSRWQQGNVFSCSVLHEALHYHYTQKSLSLSP
light: not shown
notes: EU numbering; copies: 2 + 2
B5: IgG1-F550 (antibody)
heavy: QVQLQESGPGLVKPSETLSLTCAVSGHSISHDHAWSWVRQPPGEGLEWIGFISYSGITNYNPSLQGRVTISRDNSKNTLYLQMNSLRAEDTAVYYCARSLARTTAMDYWGEGTLVTVSSASTKGPSVFPLAPSSKSTSGGTAALGCLVKDYFPEPVTVSWNSGALTSGVHTFPAVLQSSGLYSLSSVVTVPSSSLGTQTYICNVNHKPSNTKVDKKVEPKSCDKTHTCPPCPAPELLGGPSVFLFPPKPKDVLMISRTVEVTCVVVDVSHEDPEVKFNWYVDGVEVHNAKTKPREEQYNSTYRVVSVLQVLHQDWLNGKEYKCKVSNKALPAPIEKTISKAKGQPREPQVYTLPPSRDELTKNQVSLTCLVKGFYPSDIAVEWESNGQPENNYKTTPPVLDSDGSFFLYSKLTVDKSRWQQGNVFSCSVLHEALHYHYTQKSLSLSP
light: not shown
notes: EU numbering; copies: 2 + 2
B6: IgG1-F549 (antibody)
heavy: QVQLQESGPGLVKPSETLSLTCAVSGHSISHDHAWSWVRQPPGEGLEWIGFISYSGITNYNPSLQGRVTISRDNSKNTLYLQMNSLRAEDTAVYYCARSLARTTAMDYWGEGTLVTVSSASTKGPSVFPLAPSSKSTSGGTAALGCLVKDYFPEPVTVSWNSGALTSGVHTFPAVLQSSGLYSLSSVVTVPSSSLGTQTYICNVNHKPSNTKVDKKVEPKSCDKTHTCPPCPAPELLGGPSVFLFPPKPKDSLMISRTVEVTCVVVDVSHEDPEVKFNWYVDGVEVHNAKTKPREEQYNSTYRVVSVLQVLHQDWLNGKEYKCKVSNKALPAPIEKTISKAKGQPREPQVYTLPPSRDELTKNQVSLTCLVKGFYPSDIAVEWESNGQPENNYKTTPPVLDSDGSFFLYSKLTVDKSRWQQGNVFSCSVLHEALHYHYTQKSLSLSP
light: not shown
notes: EU numbering; copies: 2 + 2
B7: IgG1-F534 (antibody)
heavy: QVQLQESGPGLVKPSETLSLTCAVSGHSISHDHAWSWVRQPPGEGLEWIGFISYSGITNYNPSLQGRVTISRDNSKNTLYLQMNSLRAEDTAVYYCARSLARTTAMDYWGEGTLVTVSSASTKGPSVFPLAPSSKSTSGGTAALGCLVKDYFPEPVTVSWNSGALTSGVHTFPAVLQSSGLYSLSSVVTVPSSSLGTQTYICNVNHKPSNTKVDKKVEPKSCDKTHTCPPCPAPELLGGPSVFLFPPKPKDTLMISRTAEVTCVVVDVSHEDPEVKFNWYVDGVEVHEAKTKPREEQYNSTYRVVSVLQVLHQDWLNGKEYKCKVSNKALPAPIEKTISKAKGQPREPQVYTLPPSRDELTKNQVSLTCLVKGFYPSDIAVEWESNGQPENNYKTTPPVLDSDGSFFLYSKLTVDKSRWQQGNVFSCSVYHEALHYHYTQKSLSLSP
light: not shown
notes: EU numbering; copies: 2 + 2
B8: IgG1-F551 (antibody)
heavy: QVQLQESGPGLVKPSETLSLTCAVSGHSISHDHAWSWVRQPPGEGLEWIGFISYSGITNYNPSLQGRVTISRDNSKNTLYLQMNSLRAEDTAVYYCARSLARTTAMDYWGEGTLVTVSSASTKGPSVFPLAPSSKSTSGGTAALGCLVKDYFPEPVTVSWNSGALTSGVHTFPAVLQSSGLYSLSSVVTVPSSSLGTQTYICNVNHKPSNTKVDKKVEPKSCDKTHTCPPCPAPELLGGPSVFLFPPKPKDWLMISRTVEVTCVVVDVSHEDPEVKFNWYVDGVEVHNAKTKPREEQYNSTYRVVSVLQVLHQDWLNGKEYKCKVSNKALPAPIEKTISKAKGQPREPQVYTLPPSRDELTKNQVSLTCLVKGFYPSDIAVEWESNGQPENNYKTTPPVLDSDGSFFLYSKLTVDKSRWQQGNVFSCSVLHEALHYHYTQKSLSLSP
light: not shown
notes: EU numbering; copies: 2 + 2
B9: IgG1-F552 (antibody)
heavy: QVQLQESGPGLVKPSETLSLTCAVSGHSISHDHAWSWVRQPPGEGLEWIGFISYSGITNYNPSLQGRVTISRDNSKNTLYLQMNSLRAEDTAVYYCARSLARTTAMDYWGEGTLVTVSSASTKGPSVFPLAPSSKSTSGGTAALGCLVKDYFPEPVTVSWNSGALTSGVHTFPAVLQSSGLYSLSSVVTVPSSSLGTQTYICNVNHKPSNTKVDKKVEPKSCDKTHTCPPCPAPELLGGPSVFLFPPKPKDYLMISRTVEVTCVVVDVSHEDPEVKFNWYVDGVEVHNAKTKPREEQYNSTYRVVSVLQVLHQDWLNGKEYKCKVSNKALPAPIEKTISKAKGQPREPQVYTLPPSRDELTKNQVSLTCLVKGFYPSDIAVEWESNGQPENNYKTTPPVLDSDGSFFLYSKLTVDKSRWQQGNVFSCSVLHEALHYHYTQKSLSLSP
light: not shown
notes: EU numbering; 'N428L' as printed, probably M428L; copies: 2 + 2
B10: IgG1-F541 (antibody)
heavy: QVQLQESGPGLVKPSETLSLTCAVSGHSISHDHAWSWVRQPPGEGLEWIGFISYSGITNYNPSLQGRVTISRDNSKNTLYLQMNSLRAEDTAVYYCARSLARTTAMDYWGEGTLVTVSSASTKGPSVFPLAPSSKSTSGGTAALGCLVKDYFPEPVTVSWNSGALTSGVHTFPAVLQSSGLYSLSSVVTVPSSSLGTQTYICNVNHKPSNTKVDKKVEPKSCDKTHTCPPCPAPELLGGPSVFLFPPKPKDILMISRTVEVTCVVVDVSHEDPEVKFNWYVDGVEVHNAKTKPREEQYNSTYRVVSVLQVLHQDWLNGKEYKCKVSNKALPAPIEKTISKAKGQPREPQVYTLPPSRDELTKNQVSLTCLVKGFYPSDIAVEWESNGQPENNYKTTPPVLDSDGSFFLYSKLTVDKSRWQQGNVFSCSVLHEALHYHYTQKSLSLSP
light: not shown
notes: EU numbering; copies: 2 + 2
B11: IgG1-F526 (antibody)
heavy: QVQLQESGPGLVKPSETLSLTCAVSGHSISHDHAWSWVRQPPGEGLEWIGFISYSGITNYNPSLQGRVTISRDNSKNTLYLQMNSLRAEDTAVYYCARSLARTTAMDYWGEGTLVTVSSASTKGPSVFPLAPSSKSTSGGTAALGCLVKDYFPEPVTVSWNSGALTSGVHTFPAVLQSSGLYSLSSVVTVPSSSLGTQTYICNVNHKPSNTKVDKKVEPKSCDKTHTCPPCPAPELLGGPSVFLFPPKPKDTLMISRTTEVTCVVVDVSHEDPEVKFNWYVDGVEVHNAKTKPREEQYNSTYRVVSVLQVLHQDWLNGKEYKCKVSNKALPAPIEKTISKAKGQPREPQVYTLPPSRDELTKNQVSLTCLVKGFYPSDIAVEWESNGQPENNYKTTPPVLDSDGSFFLYSKLTVDKSRWQQGNVFSCSVYHEALHYHYTQKSLSLSP
light: not shown
notes: EU numbering; copies: 2 + 2
B12: IgG1-F535 (antibody)
heavy: QVQLQESGPGLVKPSETLSLTCAVSGHSISHDHAWSWVRQPPGEGLEWIGFISYSGITNYNPSLQGRVTISRDNSKNTLYLQMNSLRAEDTAVYYCARSLARTTAMDYWGEGTLVTVSSASTKGPSVFPLAPSSKSTSGGTAALGCLVKDYFPEPVTVSWNSGALTSGVHTFPAVLQSSGLYSLSSVVTVPSSSLGTQTYICNVNHKPSNTKVDKKVEPKSCDKTHTCPPCPAPELLGGPSVFLFPPKPKDALMISRTVEVTCVVVDVSHEDPEVKFNWYVDGVEVHNAKTKPREEQYNSTYRVVSVLQVLHQDWLNGKEYKCKVSNKALPAPIEKTISKAKGQPREPQVYTLPPSRDELTKNQVSLTCLVKGFYPSDIAVEWESNGQPENNYKTTPPVLDSDGSFFLYSKLTVDKSRWQQGNVFSCSVLHEALHYHYTQKSLSLSP
light: not shown
notes: EU numbering; copies: 2 + 2
B13: IgG1-F523 (antibody)
heavy: QVQLQESGPGLVKPSETLSLTCAVSGHSISHDHAWSWVRQPPGEGLEWIGFISYSGITNYNPSLQGRVTISRDNSKNTLYLQMNSLRAEDTAVYYCARSLARTTAMDYWGEGTLVTVSSASTKGPSVFPLAPSSKSTSGGTAALGCLVKDYFPEPVTVSWNSGALTSGVHTFPAVLQSSGLYSLSSVVTVPSSSLGTQTYICNVNHKPSNTKVDKKVEPKSCDKTHTCPPCPAPELLGGPSVFLFPPKPKDTLMISRTVEVTCVVVDVSHEDPEVKFNWYVDGVEVHNAKTKPREEQYNSTYRVVSALQVLHQDWLNGKEYKCKVSNKALPAPIEKTISKAKGQPREPQVYTLPPSRDELTKNQVSLTCLVKGFYPSDIAVEWESNGQPENNYKTTPPVLDSDGSFFLYSKLTVDKSRWQQGNVFSCSVYHEALHYHYTQKSLSLSP
light: not shown
notes: EU numbering; copies: 2 + 2

The binders below were run against T1, human FcRn (soluble human FcRn complexed with β2-microglobulin) (human, UniProt P61769 21-119, limits assumed) (assay: SPR, pH 7.0;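 also: antibodies captured on a Protein L sensor chip with human FcRn injected as analyte, KD calculated from fitted association and dissociation rate constants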).
T1 construct: also called hFcRn
T1 sequence (chain, as listed by the source limits assumed, chain 1 of 2): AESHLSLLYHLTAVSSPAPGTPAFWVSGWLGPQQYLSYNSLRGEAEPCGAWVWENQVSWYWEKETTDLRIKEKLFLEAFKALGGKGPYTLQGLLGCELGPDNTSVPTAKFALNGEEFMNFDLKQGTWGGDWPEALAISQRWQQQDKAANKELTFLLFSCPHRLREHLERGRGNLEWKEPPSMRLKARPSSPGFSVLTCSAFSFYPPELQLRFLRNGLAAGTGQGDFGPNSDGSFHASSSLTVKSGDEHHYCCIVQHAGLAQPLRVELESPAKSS
T1 sequence (P61769 21-119 limits assumed, chain 2 of 2): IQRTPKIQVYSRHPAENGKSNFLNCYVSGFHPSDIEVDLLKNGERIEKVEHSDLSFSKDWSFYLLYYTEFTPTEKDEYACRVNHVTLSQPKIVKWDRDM

Binder | Kd
B1 | 11 nM
B2 | 99 nM
B3 | 12 nM
B4 | 31 nM
B5 | 59 nM
B6 | 54 nM
B7 | 12 nM
B8 | 120 nM
B9 | 110 nM
B10 | 60 nM
B11 | 19 nM
B12 | 39 nM
B13 | 26 nM
